Experimental findings from publication PMC2957810 (Traffic (Copenhagen, Denmark), 2009) are described below.

What all share (assay): co-IP
The target of data set [1] is Δ79-82ALP (dimerization mutant of pro-ALP) (S. cerevisiae) (UniProt P11491).
Data set [2] has as its target pro-ALP (yeast vacuolar alkaline phosphatase, pro-form) (S. cerevisiae) (UniProt P11491).
The data set “co-IP” deals with the molecule itself.

Erv26p (receptor): the percent of total Erv26p recovered in the IP in data set [1] was 1%; in data set [2], 2.5%.

B1: pro-ALP (yeast vacuolar alkaline phosphatase, pro-form) (natural protein, S. cerevisiae, UniProt P11491 1-566, looked up)
chain: MMTHTLPSEQTRLVPGSDSSSRPKKRRISKRSKIIVSTVVCIGLLLVLVQLAFPSSFALRSASHKKKNVIFFVTDGMGPASLSMARSFNQHVNDLPIDDILTLDEHFIGSSRTRSSDSLVTDSAAGATAFACALKSYNGAIGVDPHHRPCGTVLEAAKLAGYLTGLVVTTRITDATPASFSSHVDYRWQEDLIATHQLGEYPLGRVVDLLMGGGRSHFYPQGEKASPYGHHGARKDGRDLIDEAQSNGWQYVGDRKNFDSLLKSHGENVTLPFLGLFADNDIPFEIDRDEKEYPSLKEQVKVALGALEKASNEDKDSNGFFLMVEGSRIDHAGHQNDPASQVREVLAFDEAFQYVLEFAENSDTETVLVSTSDHETGGLVTSRQVTASYPQYVWYPQVLANATHSGEFLKRKLVDFVHEHKGASSKIENFIKHEILEKDLGIYDYTDSDLETLIHLDDNANAIQDKLNDMVSFRAQIGWTTHGHSAVDVNIYAYANKKATWSYVLNNLQGNHENTEVGQFLENFLELNLNEVTDLIRDTKHTSDFDATEIASEVQHYDEYYHELTN
B1: the “ratio of untagged to HA-tagged pro-ALP immunoprecipitated” value in the data set “co-IP” turned out to be 0.38.

B2: Δ79-82ALP (dimerization mutant of pro-ALP) (natural protein, S. cerevisiae, UniProt P11491 1-566, looked up)
chain: MMTHTLPSEQTRLVPGSDSSSRPKKRRISKRSKIIVSTVVCIGLLLVLVQLAFPSSFALRSASHKKKNVIFFVTDGMGSMARSFNQHVNDLPIDDILTLDEHFIGSSRTRSSDSLVTDSAAGATAFACALKSYNGAIGVDPHHRPCGTVLEAAKLAGYLTGLVVTTRITDATPASFSSHVDYRWQEDLIATHQLGEYPLGRVVDLLMGGGRSHFYPQGEKASPYGHHGARKDGRDLIDEAQSNGWQYVGDRKNFDSLLKSHGENVTLPFLGLFADNDIPFEIDRDEKEYPSLKEQVKVALGALEKASNEDKDSNGFFLMVEGSRIDHAGHQNDPASQVREVLAFDEAFQYVLEFAENSDTETVLVSTSDHETGGLVTSRQVTASYPQYVWYPQVLANATHSGEFLKRKLVDFVHEHKGASSKIENFIKHEILEKDLGIYDYTDSDLETLIHLDDNANAIQDKLNDMVSFRAQIGWTTHGHSAVDVNIYAYANKKATWSYVLNNLQGNHENTEVGQFLENFLELNLNEVTDLIRDTKHTSDFDATEIASEVQHYDEYYHELTN
On to B2, for which the “ratio of untagged to HA-tagged pro-ALP immunoprecipitated” value in “co-IP” worked out at 0.05.
